Data as given in patent publication US20190367615A1 (BEIJING HANMI PHARM, published 2019).

Assays:
[1] = biological target: T1, Recombinant human PD-1 (Sino Biological Inc., Catalog Number 10377-H08H) (human, UniProt Q15116 25-167); assay: ELISA, human PD-1 coated
T1 construct: Bought protein; also called antigen PD-1
Procedure: Recombinant human PD-1 (purchased from Sino Biological Inc.) was coated on a 96-well high-absorbing ELISA plate with a carbonate buffer solution with pH 9.6, the coating concentration was 1 μg/mL, the coating amount was 100 μL per well, and the coating was carried out at 4° C. overnight. The plate was washed five times with PBST and blocked with 300 μL/well of PBST containing 1% BSA, and then incubated at 25° C. for 1 hour. The plate was washed five times with PBST. […] The plate was washed five times with PBST. Then, horseradish peroxidase-labeled anti-human IgG antibody (Chemicon, Catalog Number AP309P) 1:2000 diluted in PBST containing 1% BSA was added, 100 μL per well, incubated at 25° C. for 1 hour. The plate was washed five times with PBST. 100 μL/well of colorimetric substrate TMB was added and incubated at room temperature for 10 minutes. Color development was terminated by adding 100 μL/well of 1 M H₂SO₄. The absorbance at 450 nm was read on a microplate reader.

[2] = biological target: T2, Recombinant human PD-1-Fc (human, UniProt Q15116 25-167, limits assumed); assay: competition ELISA, PD-1-Fc coated, competitor biotin-labeled PD-L1
T2 construct: also called recombinant human PD-1-Fc protein; not shown: Fc part
Procedure: Recombinant human PD-1-Fc was coated on a 96-well high-absorbing ELISA plate with a carbonate buffer solution with pH 9.6, the coating concentration was 1 μg/mL, the coating amount was 100 μL per well, and the coating was carried at 4° C. out overnight. The plate was washed five times with PBST and blocked with 300 μL/well of PBST containing 1% BSA and incubated at 25° C. for 1 hour. The plate was washed five times with PBST. The positive control and the anti-human PD-1 antibody sample were added, 50 μL per well. […] The plate was washed five times with PBST. Then, Streptavidin-HRP (BD Pharmingen, Catalog Number 554066) 1:1000 diluted in PBST containing 1% BSA was added, 100 μL per well, incubated at 25° C. for 1 hour. The plate was washed five times with PBST. 100 μL/well of colorimetric substrate TMB was added and incubated at room temperature for 10 minutes. Color development was terminated by adding 100 μL/well of 1 M H₂SO₄. The absorbance at 450 nm was read on a microplate reader.

T1 sequence (Q15116 25-167 limits assumed): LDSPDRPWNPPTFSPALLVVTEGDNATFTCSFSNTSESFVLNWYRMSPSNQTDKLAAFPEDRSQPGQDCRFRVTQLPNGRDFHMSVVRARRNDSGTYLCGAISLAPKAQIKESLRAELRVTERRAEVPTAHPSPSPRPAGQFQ
T2 sequence (Q15116 25-167 limits assumed): as above

| EC50 [1] [nM] | IC50 [2] [nM] | Binder |
| --- | --- | --- |
| 0.025 | 1.1 | AH00291 (antibody, human IgG4 S228P, kappa, also called humanized anti-human PD-1 monoclonal antibody AH00291) heavy: not shown light: DIVLTQSPATLSLSPGERATLSCRANQSISNNLHWYQQKPGQAPRLLIRFASQSISGIPARFSGSGSGTDFTLTISSLEPEDFAVYFCQQSDNWPLTFGGGTKVEIKRTVAAPSVFIFPPSDEQLKSGTASVVCLLNNFYPREAKVQWKVDNALQSGNSQESVTEQDSKDSTYSLSSTLTLSKADYEKHKVYACEVTHQGLSSPVTKSFNRGEC |
| 0.044 | 1.27 | AH00296-N26Q (antibody, human IgG4 S228P, kappa, V domains shown) VH: EVNLVESGGGLVQPGGSLRLSCAASGFTFSSYGMSWVRQAPGKGLEWVASISGGGRYTYYPDSMKGRFTISRDNSKNTLYLQMNSLRAEDTAVYYCVYEYFYTMDYWGQGTLVTVSS VL: DIVLTQSPATLSLSPGERATLSCRAQQSISNNLHWYQQKPGQAPRLLIRFASQSISGIPARFSGSGSGTDFTLTISSLEPEDFAVYFCQQSDNWPLTFGGGTKVEIKR |
| 0.025 | 1.19 | AH00295 (antibody, human IgG4 S228P, kappa, also called humanized anti-human PD-1 monoclonal antibody AH00295) heavy: not shown light: EVVLTQSPATLSLSPGERATLSCRANQSISNNLHWYQQKPGQAPRLLIRFASQSISGIPARFSGSGSGTDFTLTISSLEPEDFAVYFCQQSDNWPLTFGGGTKVEIKRTVAAPSVFIFPPSDEQLKSGTASVVCLLNNFYPREAKVQWKVDNALQSGNSQESVTEQDSKDSTYSLSSTLTLSKADYEKHKVYACEVTHQGLSSPVTKSFNRGEC |
| 0.034 | 1.2 | BMIII (antibody, human IgG4 S228P, kappa, V domains shown) VH: EVNLVESGGGLVQPGGSLRLSCAASGFTFSSYGMSWVRQTPGKGLEWVASISGGGRYTYYPDSMKGRFTISRDNSKNNLYLQMNSLRAEDTAVYYCVYEYFYTMDYWGQGTLVTVSS VL: DVVLTQSPATLSVSPGERVTLSCRANQSISNNLHWYQQKPGQSPRLLIRFASQSISGIPARFSGSGSGTDFTLTISSVEPEDFGVYFCQQSDNWPLTFGGGTKLEIKR |
| 0.043 | 1.48 | AH00294-N26S (antibody, human IgG4 S228P, kappa) heavy: not shown light: DVVLTQSPATLSLSPGERATLSCRASQSISNNLHWYQQKPGQAPRLLIRFASQSISGIPARFSGSGSGTDFTLTISSLEPEDFAVYFCQQSDNWPLTFGGGTKVEIKRTVAAPSVFIFPPSDEQLKSGTASVVCLLNNFYPREAKVQWKVDNALQSGNSQESVTEQDSKDSTYSLSSTLTLSKADYEKHKVYACEVTHQGLSSPVTKSFNRGEC |
| 0.042 | 1.36 | AH00291-S28A (antibody, human IgG4 S228P, kappa) heavy: not shown light: DIVLTQSPATLSLSPGERATLSCRANQAISNNLHWYQQKPGQAPRLLIRFASQSISGIPARFSGSGSGTDFTLTISSLEPEDFAVYFCQQSDNWPLTFGGGTKVEIKRTVAAPSVFIFPPSDEQLKSGTASVVCLLNNFYPREAKVQWKVDNALQSGNSQESVTEQDSKDSTYSLSSTLTLSKADYEKHKVYACEVTHQGLSSPVTKSFNRGEC |
| 0.037 | 1.07 | AH00296-N26S (antibody, human IgG4 S228P, kappa, V domains shown, also called AII00296-N26S) VH: EVNLVESGGGLVQPGGSLRLSCAASGFTFSSYGMSWVRQAPGKGLEWVASISGGGRYTYYPDSMKGRFTISRDNSKNTLYLQMNSLRAEDTAVYYCVYEYFYTMDYWGQGTLVTVSS VL: DIVLTQSPATLSLSPGERATLSCRASQSISNNLHWYQQKPGQAPRLLIRFASQSISGIPARFSGSGSGTDFTLTISSLEPEDFAVYFCQQSDNWPLTFGGGTKVEIKR |
| 0.047 | 1.46 | AH00294-S28A (antibody, human IgG4 S228P, kappa) heavy: not shown light: DVVLTQSPATLSLSPGERATLSCRANQAISNNLHWYQQKPGQAPRLLIRFASQSISGIPARFSGSGSGTDFTLTISSLEPEDFAVYFCQQSDNWPLTFGGGTKVEIKRTVAAPSVFIFPPSDEQLKSGTASVVCLLNNFYPREAKVQWKVDNALQSGNSQESVTEQDSKDSTYSLSSTLTLSKADYEKHKVYACEVTHQGLSSPVTKSFNRGEC |
| 0.032 | 1.35 | AH00294 (antibody, human IgG4 S228P, kappa, also called humanized anti-human PD-1 monoclonal antibody AH00294) heavy: not shown light: DVVLTQSPATLSLSPGERATLSCRANQSISNNLHWYQQKPGQAPRLLIRFASQSISGIPARFSGSGSGTDFTLTISSLEPEDFAVYFCQQSDNWPLTFGGGTKVEIKRTVAAPSVFIFPPSDEQLKSGTASVVCLLNNFYPREAKVQWKVDNALQSGNSQESVTEQDSKDSTYSLSSTLTLSKADYEKHKVYACEVTHQGLSSPVTKSFNRGEC |
| 0.048 | 1.75 | AH00296-S28A (antibody, human IgG4 S228P, kappa, V domains shown) VH: EVNLVESGGGLVQPGGSLRLSCAASGFTFSSYGMSWVRQAPGKGLEWVASISGGGRYTYYPDSMKGRFTISRDNSKNTLYLQMNSLRAEDTAVYYCVYEYFYTMDYWGQGTLVTVSS VL: DIVLTQSPATLSLSPGERATLSCRANQAISNNLHWYQQKPGQAPRLLIRFASQSISGIPARFSGSGSGTDFTLTISSLEPEDFAVYFCQQSDNWPLTFGGGTKVEIKR |
| 0.039 | 1.43 | AH00291-N26S (antibody, human IgG4 S228P, kappa) heavy: not shown light: DIVLTQSPATLSLSPGERATLSCRASQSISNNLHWYQQKPGQAPRLLIRFASQSISGIPARFSGSGSGTDFTLTISSLEPEDFAVYFCQQSDNWPLTFGGGTKVEIKRTVAAPSVFIFPPSDEQLKSGTASVVCLLNNFYPREAKVQWKVDNALQSGNSQESVTEQDSKDSTYSLSSTLTLSKADYEKHKVYACEVTHQGLSSPVTKSFNRGEC |
| 0.041 | 1.49 | AH00294-N26Q (antibody, human IgG4 S228P, kappa) heavy: not shown light: DVVLTQSPATLSLSPGERATLSCRAQQSISNNLHWYQQKPGQAPRLLIRFASQSISGIPARFSGSGSGTDFTLTISSLEPEDFAVYFCQQSDNWPLTFGGGTKVEIKRTVAAPSVFIFPPSDEQLKSGTASVVCLLNNFYPREAKVQWKVDNALQSGNSQESVTEQDSKDSTYSLSSTLTLSKADYEKHKVYACEVTHQGLSSPVTKSFNRGEC |
| 0.046 | 1.57 | AH00291-N26Q (antibody, human IgG4 S228P, kappa) heavy: not shown light: DIVLTQSPATLSLSPGERATLSCRAQQSISNNLHWYQQKPGQAPRLLIRFASQSISGIPARFSGSGSGTDFTLTISSLEPEDFAVYFCQQSDNWPLTFGGGTKVEIKRTVAAPSVFIFPPSDEQLKSGTASVVCLLNNFYPREAKVQWKVDNALQSGNSQESVTEQDSKDSTYSLSSTLTLSKADYEKHKVYACEVTHQGLSSPVTKSFNRGEC |
| 0.026 | 1.2 | AH00293 (antibody, human IgG4 S228P, kappa, V domains shown, also called humanized anti-human PD-1 monoclonal antibody AH00293) VH: EVNLVESGGGLVQPGGSLRLSCAASGFTFSSYGMSWVRQAPGKGLEWVASISGGGRYTYYPDSMKGRFTISRDNSKNNLYLQMNSLRAEDTAVYYCVYEYFYTMDYWGQGTLVTVSS VL: DIVLTQSPATLSLSPGERATLSCRANQSISNNLHWYQQKPGQAPRLLIRFASQSISGIPARFSGSGSGTDFTLTISSLEPEDFAVYYCQQSDNWPLTFGGGTKVEIKR |
| 0.028 | 1.22 | AH00298 (antibody, human IgG4 S228P, kappa, also called humanized anti-human PD-1 monoclonal antibody AH00298) heavy: not shown light: EVVLTQSPATLSLSPGERATLSCRANQSISNNLHWYQQKPGQAPRLLIRFASQSISGIPARFSGSGSGTDFTLTISSLEPEDFAVYFCQQSDNWPLTFGGGTKVEIKRTVAAPSVFIFPPSDEQLKSGTASVVCLLNNFYPREAKVQWKVDNALQSGNSQESVTEQDSKDSTYSLSSTLTLSKADYEKHKVYACEVTHQGLSSPVTKSFNRGEC |
| 0.024 | 1.09 | AH00290 (antibody, human IgG4 S228P, kappa, V domains shown, also called humanized anti-human PD-1 monoclonal antibody AH00290) VH: EVNLVESGGGLVQPGGSLRLSCAASGFTFSSYGMSWVRQAPGKGLEWVSSISGGGRYTYYPDSMKGRFTISRDNSKNTLYLQMNSLRAEDTAVYYCVYEYFYTMDYWGQGTLVTVSS VL: DIVLTQSPATLSLSPGERATLSCRANQSISNNLHWYQQKPGQAPRLLIRFASQSISGIPARFSGSGSGTDFTLTISSLEPEDFAVYFCQQSDNWPLTFGGGTKVEIKR |
| 0.027 | 1.21 | AH00296 (antibody, human IgG4 S228P, kappa, also called humanized anti-human PD-1 monoclonal antibody AH00296) heavy: not shown light: DIVLTQSPATLSLSPGERATLSCRANQSISNNLHWYQQKPGQAPRLLIRFASQSISGIPARFSGSGSGTDFTLTISSLEPEDFAVYFCQQSDNWPLTFGGGTKVEIKRTVAAPSVFIFPPSDEQLKSGTASVVCLLNNFYPREAKVQWKVDNALQSGNSQESVTEQDSKDSTYSLSSTLTLSKADYEKHKVYACEVTHQGLSSPVTKSFNRGEC |
| 0.028 | 1.3 | BMIV (antibody, human IgG4 S228P, kappa, V domains shown) VH: EVNLVESGGGLVQPGGSLRLSCAASGFTFSSYGMSWVRQTPGKGLEWVASISGGGRYTYYPDSMKGRFTISRDNSKNNLHLQMSSLRAEDTAVYYCVYEYFYTMDYWGQGTLVTVSS VL: DVVLTQSPATLSVSPGERVTLSCRANQSISNNLHWYQQKSHQSPRLLIRFASQSISGIPARFSGSGSGTDFTLTISSVETEDFGVYFCQQSDNWPLTFGGGTKLEIKR |
